Results taken from US20200317779A1.
Changes are numbered by the printed parent chain.

B1: G05 (antibody, human IgG1, lambda, L234A L235A, V domains shown)
VH: EVQLVESGGGLVQPGGSLKLSCAASGFTFNTYAMNWVRQASGKGLEWVARIRSKYNNYATYYADSVKDRFTISRDDSQSTAYLQMNSLKTEDTAVYYCVRHGNFGNSYVSWFAYWGQGTLVTVSS
VL: QAVVTQEPSLTVSPGGTVTLTCRSSTGAVTTSNYANWFQQKPGQAPRGLIYGTNKRAPWTPARFSGSLLGGKAALTLSGAQPEDEAEYYCALWYSNLWVFGGGTKLTVLG
B2: G06 (antibody, human IgG1, lambda, L234A L235A, V domains shown)
VH: B1 VH
VL: B1 VL with G71D
B3: G07 (antibody, human IgG1, lambda, L234A L235A, V domains shown)
VH: B1 VH
VL: B1 VL with Y51G
B4: G08 (antibody, human IgG1, lambda, L234A L235A, V domains shown)
VH: B1 VH
VL: B1 VL with Y51G, G71D
B5: G09 (antibody, human IgG1, lambda, L234A L235A, V domains shown)
VH: B1 VH
VL: B1 VL with F38V, G48T
B6: G10 (antibody, human IgG1, lambda, L234A L235A, V domains shown)
VH: B1 VH
VL: B1 VL with F38V, G48T, G71D
B7: A11 (antibody, human IgG1, lambda, L234A L235A, V domains shown)
VH: B1 VH with A49G, Q78K, S79N
VL: B1 VL with F38V, G48T, Y51G
B8: G11 (antibody, human IgG1, lambda, L234A L235A, V domains shown)
VH: B1 VH
VL: B1 VL with F38V, G48T, Y51G
B9: G12 (antibody, human IgG1, lambda, L234A L235A, V domains shown)
VH: B1 VH
VL: B1 VL with F38V, G48T, Y51G, G71D
B10: G13 (antibody, human IgG1, lambda, L234A L235A, V domains shown)
VH: B1 VH
VL: B1 VL with F38V
B11: G14 (antibody, human IgG1, lambda, L234A L235A, V domains shown)
VH: B1 VH
VL: B1 VL with F38V, G71D
B12: H01 (antibody, human IgG1, lambda, L234A L235A, V domains shown)
VH: B1 VH with A81L
VL: B1 VL with G48T
B13: H02 (antibody, human IgG1, lambda, L234A L235A, V domains shown)
VH: B1 VH with A81L
VL: B1 VL with G48T, G71D
B14: H03 (antibody, human IgG1, lambda, L234A L235A, V domains shown)
VH: B1 VH with A81L
VL: B1 VL with G48T, Y51G
B15: H04 (antibody, human IgG1, lambda, L234A L235A, V domains shown)
VH: B1 VH with A81L
VL: B1 VL with G48T, Y51G, G71D
B16: A12 (antibody, human IgG1, lambda, L234A L235A, V domains shown)
VH: B1 VH with A49G, Q78K, S79N
VL: B1 VL with F38V, G48T, Y51G, G71D
B17: H05 (antibody, human IgG1, lambda, L234A L235A, V domains shown)
VH: B1 VH with A81L
VL: B1 VL
B18: H06 (antibody, human IgG1, lambda, L234A L235A, V domains shown)
VH: B1 VH with A81L
VL: B1 VL with G71D
B19: H07 (antibody, human IgG1, lambda, L234A L235A, V domains shown)
VH: B1 VH with A81L
VL: B1 VL with Y51G
B20: H08 (antibody, human IgG1, lambda, L234A L235A, V domains shown)
VH: B1 VH with A81L
VL: B1 VL with Y51G, G71D
B21: H09 (antibody, human IgG1, lambda, L234A L235A, V domains shown)
VH: B1 VH with A81L
VL: B1 VL with F38V, G48T
B22: H10 (antibody, human IgG1, lambda, L234A L235A, V domains shown)
VH: B1 VH with A81L
VL: B1 VL with F38V, G48T, G71D
B23: H11 (antibody, human IgG1, lambda, L234A L235A, V domains shown)
VH: B1 VH with A81L
VL: B1 VL with F38V, G48T, Y51G
B24: H12 (antibody, human IgG1, lambda, L234A L235A, V domains shown)
VH: B1 VH with A81L
VL: B1 VL with F38V, G48T, Y51G, G71D
B25: H13 (antibody, human IgG1, lambda, L234A L235A, V domains shown)
VH: B1 VH with A81L
VL: B1 VL with F38V
B26: H14 (antibody, human IgG1, lambda, L234A L235A, V domains shown)
VH: B1 VH with A81L
VL: B1 VL with F38V, G71D
B27: A13 (antibody, human IgG1, lambda, L234A L235A, V domains shown)
VH: B1 VH with A49G, Q78K, S79N
VL: B1 VL with F38V
B28: A14 (antibody, human IgG1, lambda, L234A L235A, V domains shown)
VH: B1 VH with A49G, Q78K, S79N
VL: B1 VL with F38V, G71D
B29: A02 (antibody, human IgG1, lambda, L234A L235A, V domains shown)
VH: B1 VH with A49G, Q78K, S79N
VL: B1 VL with G48T, G71D
B30: B01 (antibody, human IgG1, lambda, L234A L235A, V domains shown)
VH: B1 VH with A49G, Q78K, S79N, A81L
VL: B1 VL with G48T
B31: B02 (antibody, human IgG1, lambda, L234A L235A, V domains shown)
VH: B1 VH with A49G, Q78K, S79N, A81L
VL: B1 VL with G48T, G71D
B32: B03 (antibody, human IgG1, lambda, L234A L235A, V domains shown)
VH: B1 VH with A49G, Q78K, S79N, A81L
VL: B1 VL with G48T, Y51G
B33: B04 (antibody, human IgG1, lambda, L234A L235A, V domains shown)
VH: B1 VH with A49G, Q78K, S79N, A81L
VL: B1 VL with G48T, Y51G, G71D
B34: B05 (antibody, human IgG1, lambda, L234A L235A, V domains shown)
VH: B1 VH with A49G, Q78K, S79N, A81L
VL: B1 VL
B35: B06 (antibody, human IgG1, lambda, L234A L235A, V domains shown)
VH: B1 VH with A49G, Q78K, S79N, A81L
VL: B1 VL with G71D
B36: B09 (antibody, human IgG1, lambda, L234A L235A, V domains shown)
VH: B1 VH with A49G, Q78K, S79N, A81L
VL: B1 VL with F38V, G48T
B37: B10 (antibody, human IgG1, lambda, L234A L235A, V domains shown)
VH: B1 VH with A49G, Q78K, S79N, A81L
VL: B1 VL with F38V, G48T, G71D
B38: A03 (antibody, human IgG1, lambda, L234A L235A, V domains shown)
VH: B1 VH with A49G, Q78K, S79N
VL: B1 VL with G48T, Y51G
B39: B11 (antibody, human IgG1, lambda, L234A L235A, V domains shown)
VH: B1 VH with A49G, Q78K, S79N, A81L
VL: B1 VL with F38V, G48T, Y51G
B40: B12 (antibody, human IgG1, lambda, L234A L235A, V domains shown)
VH: B1 VH with A49G, Q78K, S79N, A81L
VL: B1 VL with F38V, G48T, Y51G, G71D
B41: B13 (antibody, human IgG1, lambda, L234A L235A, V domains shown)
VH: B1 VH with A49G, Q78K, S79N, A81L
VL: B1 VL with F38V

biological target: recombinant human CD3ε/δ heterodimer (human) (UniProt P07766); experiment: ELISA, coated CD3ε/δ
Sequence (P07766 23-126, stated change not applied, chain 1 of 2): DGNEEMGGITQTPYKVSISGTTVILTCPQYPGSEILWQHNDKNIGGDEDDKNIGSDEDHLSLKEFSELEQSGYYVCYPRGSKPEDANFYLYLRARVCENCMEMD
Sequence (P04234 22-105, stated change not applied, chain 2 of 2, further chain): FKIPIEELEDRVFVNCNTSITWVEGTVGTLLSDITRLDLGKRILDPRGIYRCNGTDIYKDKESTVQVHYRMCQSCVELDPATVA

Compared with B1, B2 is higher in Absorbance (450 nm): 0.109 for the first, 0.118 for the second.

Compared with B3, B4 is higher in Absorbance (450 nm): 0.118 for the first, 0.137 for the second.

Compared with B5, B6 is lower in Absorbance (450 nm): 0.106 for the first, 0.099 for the second.

First: B7
Second: B8
The Absorbance (450 nm) of the first is higher: 0.122 for the first, 0.104 for the second.

Going from B9 to B10, the Absorbance (450 nm) rises from 0.085 to 0.265.

First: B11
Second: B12
The Absorbance (450 nm) of the first is lower: 0.105 for the first, 0.121 for the second.

Going from B13 to B14, the Absorbance (450 nm) rises from 0.111 to 0.113.

Compared with B15, B16 is higher in Absorbance (450 nm): 0.077 for the first, 0.097 for the second.

Compared with B17, B18 is higher in Absorbance (450 nm): 0.078 for the first, 0.134 for the second.

Compared with B19, B20 is higher in Absorbance (450 nm): 0.11 for the first, 0.118 for the second.

First: B21
Second: B22
The Absorbance (450 nm) of the first is higher: 0.141 for the first, 0.088 for the second.

First: B23
Second: B24
The Absorbance (450 nm) of the first is higher: 0.122 for the first, 0.099 for the second.

Compared with B25, B26 is lower in Absorbance (450 nm): 0.175 for the first, 0.096 for the second.

Going from B27 to B28, the Absorbance (450 nm) falls from 0.172 to 0.125.

Compared with B29, B30 is lower in Absorbance (450 nm): 0.098 for the first, 0.097 for the second.

Compared with B31, B32 is higher in Absorbance (450 nm): 0.086 for the first, 0.126 for the second.

First: B33
Second: B34
The Absorbance (450 nm) of the first is lower: 0.087 for the first, 0.102 for the second.

First: B35
Second: B36
The Absorbance (450 nm) of the first is higher: 0.138 for the first, 0.096 for the second.

First: B37
Second: B38
The Absorbance (450 nm) of the first is lower: 0.098 for the first, 0.132 for the second.

Going from B39 to B40, the Absorbance (450 nm) falls from 0.132 to 0.098.

With B41 the Absorbance (450 nm) was 0.169.

biological target: recombinant cynomolgus monkey CD3ε/δ heterodimer (cynomolgus monkey) (UniProt Q95LI5); experiment: ELISA, coated CD3ε/δ
Sequence (Q95LI5 22-117, stated change not applied, chain 1 of 2): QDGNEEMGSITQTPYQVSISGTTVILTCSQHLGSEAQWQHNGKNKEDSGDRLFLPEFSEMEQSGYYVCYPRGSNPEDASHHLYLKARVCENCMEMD
Sequence (Q95LI8 22-105, stated change not applied, chain 2 of 2, further chain): as the sequence (P04234 22-105, stated change not applied, chain 2 of 2, further chain) above, with I5V, N15K, I20V, S32T, D33N, I34N, T64A, S74N, V83L counted along it

Going from B1 to B2, the Absorbance (450 nm) rises from 0.072 to 0.078.

Compared with B3, B4 is lower in Absorbance (450 nm): 0.316 for the first, 0.119 for the second.

B5 and B6 are the same in Absorbance (450 nm): 0.079 for the first, 0.079 for the second.

First: B7
Second: B8
The Absorbance (450 nm) of the first is higher: 0.105 for the first, 0.08 for the second.

Going from B9 to B10, the Absorbance (450 nm) rises from 0.065 to 0.242.

First: B11
Second: B12
The Absorbance (450 nm) of the first is lower: 0.099 for the first, 0.154 for the second.

Compared with B13, B14 is higher in Absorbance (450 nm): 0.08 for the first, 0.085 for the second.

B15 and B16 are the same in Absorbance (450 nm): 0.068 for the first, 0.068 for the second.

First: B17
Second: B18
The Absorbance (450 nm) of the first is lower: 0.061 for the first, 0.101 for the second.

Compared with B19, B20 is higher in Absorbance (450 nm): 0.09 for the first, 0.136 for the second.

Compared with B21, B22 is lower in Absorbance (450 nm): 0.113 for the first, 0.077 for the second.

Going from B23 to B24, the Absorbance (450 nm) falls from 0.142 to 0.083.

Compared with B25, B26 is lower in Absorbance (450 nm): 0.196 for the first, 0.094 for the second.

Going from B27 to B28, the Absorbance (450 nm) falls from 0.154 to 0.113.

Compared with B29, B30 is higher in Absorbance (450 nm): 0.068 for the first, 0.071 for the second.

First: B31
Second: B32
The Absorbance (450 nm) of the first is lower: 0.072 for the first, 0.091 for the second.

First: B33
Second: B34
The Absorbance (450 nm) of the first is lower: 0.059 for the first, 0.1 for the second.

Compared with B35, B36 is lower in Absorbance (450 nm): 0.143 for the first, 0.099 for the second.

Going from B37 to B38, the Absorbance (450 nm) rises from 0.076 to 0.094.

Compared with B39, B40 is lower in Absorbance (450 nm): 0.107 for the first, 0.072 for the second.

For B41, the Absorbance (450 nm) was 0.156.
